Experimental data from PMC12263834, “Structural basis of Fanconi anemia pathway activation by FANCM”.

T1: FANCM translocase domain (8HIS-FANCM 73-644) (human, UniProt Q8IYD8 73-644)
T1 sequence: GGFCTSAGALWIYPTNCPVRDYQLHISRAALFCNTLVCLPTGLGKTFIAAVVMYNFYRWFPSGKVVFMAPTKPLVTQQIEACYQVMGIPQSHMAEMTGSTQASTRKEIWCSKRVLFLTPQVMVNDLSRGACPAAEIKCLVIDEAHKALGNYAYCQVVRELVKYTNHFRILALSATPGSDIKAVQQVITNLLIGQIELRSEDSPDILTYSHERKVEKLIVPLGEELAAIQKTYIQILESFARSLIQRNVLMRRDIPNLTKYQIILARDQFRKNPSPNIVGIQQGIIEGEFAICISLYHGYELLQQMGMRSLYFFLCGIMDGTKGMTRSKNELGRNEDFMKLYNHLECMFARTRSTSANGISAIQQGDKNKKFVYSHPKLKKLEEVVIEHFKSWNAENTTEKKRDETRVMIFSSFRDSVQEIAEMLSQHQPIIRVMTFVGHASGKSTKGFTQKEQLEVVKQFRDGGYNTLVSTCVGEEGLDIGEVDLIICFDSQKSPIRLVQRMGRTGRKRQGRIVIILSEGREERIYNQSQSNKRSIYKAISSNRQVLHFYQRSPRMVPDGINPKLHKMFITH

T2: FANCM-CTD;FAAP24 (human?;human?, UniProt Q8IYD8;Q9BTP7 1799-2048;1-215, |)
T2 sequence 1: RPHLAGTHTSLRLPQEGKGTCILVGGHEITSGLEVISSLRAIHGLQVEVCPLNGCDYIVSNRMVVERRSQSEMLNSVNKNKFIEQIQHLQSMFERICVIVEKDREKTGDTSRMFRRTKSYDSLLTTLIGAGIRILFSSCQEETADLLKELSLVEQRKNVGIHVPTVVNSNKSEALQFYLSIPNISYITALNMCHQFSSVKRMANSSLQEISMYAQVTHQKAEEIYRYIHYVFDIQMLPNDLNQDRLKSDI
T2 sequence 2: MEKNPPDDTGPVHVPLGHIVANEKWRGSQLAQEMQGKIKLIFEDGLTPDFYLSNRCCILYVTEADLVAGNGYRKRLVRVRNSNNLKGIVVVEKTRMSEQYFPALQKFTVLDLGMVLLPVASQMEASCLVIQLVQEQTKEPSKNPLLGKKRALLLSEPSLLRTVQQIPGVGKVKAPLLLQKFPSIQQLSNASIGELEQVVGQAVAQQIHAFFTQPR

B1: SA1/SA2 splayed duplex (dsDNA)
DNA 1: TACGCATCATCGCTCGGTTTT
DNA 2: TTTTCCGAGCGATGATGCGTA

Experiments:
[1] = target: FANCE (FA core complex component, in cells) [human (endogenous in HCT116 or HEK293 cells)]; test: co-immunoprecipitation (quantified Western blot); details: cell-based; n = 3 independent co-immunoprecipitation experiments; parent: 100; read off a plot
[2] = target: FANCA (FA core complex component, in cells) [human (endogenous in HCT116 or HEK293 cells)]; test: co-immunoprecipitation (quantified Western blot); details: cell-based; n = 3 independent co-immunoprecipitation experiments; parent: 100; read off a plot
[3] = target: T1, FANCM translocase domain (8HIS-FANCM …); test: crystal structure (2.2 A); 5 mM MgCl2 in protein buffer; Fluorescence anisotropy: 25 mM Tris-HCl pH 8, 20 mM NaCl, 2 mM MnCl2, 0.1 mg/ml BSA, temperature not stated; crystals N-terminal domain: 0.2 M NaCl, 0.1 M HEPES pH 7.0, 32.5% PEG 400, room temperature; CTD: 25% PEG3350, 0.1 M diammonium hydrogen phosphate; details: protein: recombinant; tags: 8xHis N-terminal; hairpin, 14 bp stem, TTAG loop, 11 nt 3' flap
[4] = target: T2, FANCM-CTD;FAAP24; test: crystal structure (2.4 A); Mg2+ site in FAAP24; duplex contacted, splayed arms disordered; Fluorescence anisotropy: 25 mM Tris-HCl pH 8, 20 mM NaCl, 2 mM MnCl2, 0.1 mg/ml BSA, temperature not stated; crystals N-terminal domain: 0.2 M NaCl, 0.1 M HEPES pH 7.0, 32.5% PEG 400, room temperature; CTD: 25% PEG3350, 0.1 M diammonium hydrogen phosphate; details: protein: recombinant;recombinant; tags: GST (PreScission cleaved);HIS; copies: 1;1; 17 bp duplex with splayed arms: 3' TTTT on SA1 and 5' TTTT on SA2 at the same end

Row | Molecule | percent of parent (% of wild-type FANCM) [1] | percent of parent (% of wild-type FANCM) [2] | other results
1 | Flag-FANCM-wildtype (expressed in cells) mutant V990A [human] / FANCE (FA core complex component, in cells) [human (endogenous in HCT116 or HEK293 cells)] chain 1 V990A | 27 |  | 
2 | Flag-FANCM-wildtype (expressed in cells) mutant P999L [human] / FANCE (FA core complex component, in cells) [human (endogenous in HCT116 or HEK293 cells)] chain 1 P999L | 10 |  | 
3 | Flag-FANCM-wildtype (expressed in cells) mutant V990A [human] / FANCA (FA core complex component, in cells) [human (endogenous in HCT116 or HEK293 cells)] chain 1 V990A |  | 40 | 
4 | Flag-FANCM-wildtype (expressed in cells) mutant P999L [human] / FANCA (FA core complex component, in cells) [human (endogenous in HCT116 or HEK293 cells)] chain 1 P999L |  | 14 | 
5 | GGTATGAGCACTGCTTAGGCAGTGCTCATACCGCATGGAGCTG (structured_DNA) [Hairpin15 (3' flap hairpin)] |  |  | binding result [3]: binds
6 | B1 |  |  | binding result [4]: binds
